Laboratory results: US20210228499A1 (DUKE UNIVERSITY, published 2021)

Tests used:
[1] = target: T1, human GPR37 (hGPR37-V5, expressed in transfected HEK293 cells) (human, UniProt O15354 27-613); experiment: cell-based or functional assay
T1 sequence: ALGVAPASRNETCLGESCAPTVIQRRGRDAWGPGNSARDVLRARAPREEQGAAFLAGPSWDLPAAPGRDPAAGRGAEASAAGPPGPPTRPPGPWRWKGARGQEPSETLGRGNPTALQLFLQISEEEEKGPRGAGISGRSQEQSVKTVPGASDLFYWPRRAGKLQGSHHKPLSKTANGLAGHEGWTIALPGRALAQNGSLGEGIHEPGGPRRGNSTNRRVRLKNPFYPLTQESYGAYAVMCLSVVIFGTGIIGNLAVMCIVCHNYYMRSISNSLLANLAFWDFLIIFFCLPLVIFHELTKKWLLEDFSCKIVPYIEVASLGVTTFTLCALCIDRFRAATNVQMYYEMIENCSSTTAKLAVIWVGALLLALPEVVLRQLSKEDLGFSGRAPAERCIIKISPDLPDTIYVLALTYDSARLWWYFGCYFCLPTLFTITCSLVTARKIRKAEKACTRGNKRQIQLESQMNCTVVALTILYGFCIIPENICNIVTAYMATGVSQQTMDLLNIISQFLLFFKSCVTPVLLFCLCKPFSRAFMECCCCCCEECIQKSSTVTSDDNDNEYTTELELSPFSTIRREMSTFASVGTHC

[2] = target: T2, mouse GPR37 (native, on peritoneal macrophages and in tissues of wild-type mice) (mouse, UniProt Q9QY42 27-600); experiment: cell-based or functional assay
T2 sequence (looked up): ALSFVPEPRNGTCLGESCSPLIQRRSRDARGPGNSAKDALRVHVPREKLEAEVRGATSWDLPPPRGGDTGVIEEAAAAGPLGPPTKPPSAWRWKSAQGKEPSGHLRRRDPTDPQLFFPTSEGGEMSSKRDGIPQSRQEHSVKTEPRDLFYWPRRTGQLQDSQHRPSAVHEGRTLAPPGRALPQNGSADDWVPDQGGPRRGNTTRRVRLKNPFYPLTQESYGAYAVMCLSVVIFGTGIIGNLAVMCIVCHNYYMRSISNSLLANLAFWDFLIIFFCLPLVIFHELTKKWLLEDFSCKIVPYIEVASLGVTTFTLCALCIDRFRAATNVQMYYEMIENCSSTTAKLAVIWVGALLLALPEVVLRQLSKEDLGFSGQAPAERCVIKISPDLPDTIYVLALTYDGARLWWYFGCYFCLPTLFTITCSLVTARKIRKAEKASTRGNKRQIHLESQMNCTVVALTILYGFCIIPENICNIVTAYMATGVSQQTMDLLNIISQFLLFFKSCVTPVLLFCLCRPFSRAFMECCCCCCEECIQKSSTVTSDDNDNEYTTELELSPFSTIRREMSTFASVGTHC

EC50 of iCa^2+ increase in HEK293 cells transfected with human GPR37 (Fura-2AM calcium imaging) [1]: 407 nM
EC50 of iCa^2+ increase in mouse peritoneal macrophages (Fluo-4AM calcium imaging) [2]: 302 nM
B1: prosaposin-derived 14-mer peptide (TX14) (peptide)
peptide: TALIDNNATEEILY
